The results in this text go back to paper PMC8487046, “Insights into the ligand binding specificity of SREC‐II (scavenger receptor expressed by endothelial cells)” (FEBS Open Bio, 2021).

Broadly, the koff is a measure of how fast the partners let go of each other. The term kon denotes the rate constant with which the complex forms.

The labels stand for the following.
B2: SREC‐II(44‐442), extracellular domain of scavenger receptor expressed by endothelial cells II (domain or fragment)
chain: QELNPRGRNVCRAPGSQVPTCCAGWRQQGDECGIAVCEGNSTCSENEVCVRPGECRCRHGYFGANCDTKCPRQFWGPDCKELCSCHPHGQCEDVTGQCTCHARRWGARCEHACQCQHGTCHPRSGACRCEPGWWGAQCASACYCSATSRCDPQTGACLCHAGWWGRSCNNQCACNSSPCEQQSGRCQCRERTFGARCDRYCQCFRGRCHPVDGTCACEPGYRGKYCREPCPAGFYGLGCRRRCGQCKGQQPCTVAEGRCLTCEPGWNGTKCDQPCATGFYGEGCSHRCPPCRDGHACNHVTGKCTRCNAGWIGDRCETKCSNGTYGEDCAFVCADCGSGHCDFQSGRCLCSPGVHGPHCNVTCPPGLHGADCAQACSCHEDTCDPVTGACHLETNQRKGLIK
modifications: N‐terminal glutamine 44 converted to pyroglutamate; N‐glycosylated (extra mass of 11.3 kDa)
notes: SREC-II (encoded by SCARF2), extracellular moiety; 3 amino acids (Leu-Ile-Lys) between Gly442 and the 8 His residues; also called SREC‐II ectodomain; soluble SREC‐II; not shown: His8, C-terminal, kept

The target in assay [1] is B2. Briefly: SPR; SREC-II(44-442) immobilized (1973 RU, CM5, amine coupling), CRT injected at five increasing concentrations in single cycle kinetics mode; TBS-Ca-P; 30 µL/min; 25 °C; global fit, two-state reaction model; apparent KD. To be noted: both partners purified.
The target in assay [2] is T1, complement C1q, purified human (human, UniProt P02745 23-245; P02746 28-253; P02747 29-245).
T1 construct: MW used: 459 300 g/mol; source: purified human C1q, prepared as described previously [8]; copies: + +
T1 sequence (P02745 23-245, chain 1 of 3): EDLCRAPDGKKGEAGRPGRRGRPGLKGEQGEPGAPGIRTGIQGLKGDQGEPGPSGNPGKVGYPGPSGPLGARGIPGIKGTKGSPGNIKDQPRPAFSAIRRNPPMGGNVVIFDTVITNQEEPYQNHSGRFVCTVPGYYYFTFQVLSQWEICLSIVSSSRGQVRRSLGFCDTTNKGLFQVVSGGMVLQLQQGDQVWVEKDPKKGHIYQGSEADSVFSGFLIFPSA
T1 sequence (P02746 28-253, chain 2 of 3): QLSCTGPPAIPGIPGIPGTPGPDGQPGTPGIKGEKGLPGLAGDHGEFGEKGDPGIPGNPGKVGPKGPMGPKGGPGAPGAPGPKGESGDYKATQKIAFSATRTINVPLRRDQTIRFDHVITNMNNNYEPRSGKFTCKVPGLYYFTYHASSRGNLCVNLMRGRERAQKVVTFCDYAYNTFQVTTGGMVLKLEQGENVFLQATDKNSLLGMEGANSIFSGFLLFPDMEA
T1 sequence (P02747 29-245, chain 3 of 3): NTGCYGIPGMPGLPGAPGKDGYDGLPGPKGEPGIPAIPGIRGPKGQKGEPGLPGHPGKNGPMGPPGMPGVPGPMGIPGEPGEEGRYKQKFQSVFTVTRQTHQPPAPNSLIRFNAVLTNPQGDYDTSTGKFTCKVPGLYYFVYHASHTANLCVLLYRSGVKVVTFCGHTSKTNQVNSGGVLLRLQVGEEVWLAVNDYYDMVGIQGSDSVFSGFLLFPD
The assay is described as follows: SPR; C1q immobilized (18 700 RU, CM5, amine coupling; BSA as reference surface), serially diluted SREC-II(44-442) injected; TBS-Ca-P; 20 µL/min; 25 °C; global fit, 1:1 Langmuir model; apparent KD. To be noted: both partners purified. A general note: In SPR one partner is held on a chip, and binding of the other changes the refractive index at the surface.

B1: recombinant human calreticulin (CRT) (natural protein, UniProt P27797 18-417, looked up)
chain: EPAVYFKEQFLDGDGWTSRWIESKHKSDFGKFVLSSGKFYGDEEKDKGLQTSQDARFYALSASFEPFSNKGQTLVVQFTVKHEQNIDCGGGYVKLFPNSLDQTDMHGDSEYNIMFGPDICGPGTKKVHVIFNYKGKNVLINKDIRCKDDEFTHLYTLIVRPDNTYEVKIDNSQVESGSLEDDWDFLPPKKIKDPDASKPEDWDERAKIDDPTDSKPEDWDKPEHIPDPDAKKPEDWDEEMDGEWEPPVIQNPEYKGEWKPRQIDNPDYKGTWIHPEIDNPEYSPDPSIYAYDNFGVLGLDLWQVKSGTIFDNFLITNDEAYAEEFGNETWGVTKAAEKQMKDKQDEEQRLKEEEEDKKRKEEEEAEDKEDDEDKDEDEEDEEDKEEDEEEDVPGQAKDEL
notes: calreticulin, human; source: recombinant, produced according to published procedures [6, 9]
Turning to B1, the Kd in assay [1] came out at 290 nM.
Regarding B2, in assay [2], the Kd worked out at 45 nM, the koff was 0.001 s⁻¹ and the kon turned out to be 20000 M⁻¹ s⁻¹.
